Measured values as given in PMC9482650, “Quantitative fragmentomics allow affinity mapping of interactomes” (Nature Communications, 2022).

Legend:
Assay in all cases: holdup assay
Set-up in all cases: key: below the threshold = too weak to quantify, mostly under pKd 3.1 to 4
[1] = target: T1, GRIP1_2, Q9Y3R0
T1 sequence (Q9Y3R0 145-248, limits assumed, looked up): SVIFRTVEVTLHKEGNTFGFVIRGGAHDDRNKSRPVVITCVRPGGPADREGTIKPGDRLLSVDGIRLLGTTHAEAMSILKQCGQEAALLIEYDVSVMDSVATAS

[2] = target: CASK, O14936
CASK, O14936, sequence (O14936 487-570): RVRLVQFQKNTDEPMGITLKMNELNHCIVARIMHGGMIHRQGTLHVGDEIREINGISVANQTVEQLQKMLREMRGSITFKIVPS

[3] = target: MAGI1_1, Q96QZ7
MAGI1_1, Q96QZ7, sequence (Q96QZ7 1-106): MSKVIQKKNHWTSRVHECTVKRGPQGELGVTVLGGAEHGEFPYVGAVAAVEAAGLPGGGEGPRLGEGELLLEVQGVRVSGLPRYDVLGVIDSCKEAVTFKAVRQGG

[4] = target: PDLIM1, O00151
PDLIM1, O00151, sequence (O00151 1-87): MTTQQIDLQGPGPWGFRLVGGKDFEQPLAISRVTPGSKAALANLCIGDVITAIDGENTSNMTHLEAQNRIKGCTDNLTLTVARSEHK

[5] = target: GRID2IP_2, A4D2P6
GRID2IP_2, A4D2P6, sequence (A4D2P6 272-370): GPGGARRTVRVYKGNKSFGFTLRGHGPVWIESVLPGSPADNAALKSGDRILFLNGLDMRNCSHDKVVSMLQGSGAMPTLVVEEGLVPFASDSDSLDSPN

[6] = target: T2, MPDZ_12, O75970
T2 sequence (O75970 1857-1958, limits assumed, looked up): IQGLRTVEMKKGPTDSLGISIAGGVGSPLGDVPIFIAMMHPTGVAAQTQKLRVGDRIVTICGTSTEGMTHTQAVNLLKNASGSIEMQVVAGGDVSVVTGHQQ

[7] = target: MAGI2_5, Q86UL8
MAGI2_5, Q86UL8, sequence (Q86UL8 915-1017): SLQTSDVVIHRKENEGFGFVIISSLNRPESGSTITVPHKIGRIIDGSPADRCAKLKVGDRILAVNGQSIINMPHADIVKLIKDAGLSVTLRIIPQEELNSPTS

[8] = target: T3, DFNB31_1, Q9P202
T3 sequence (Q9P202 135-233, limits assumed, looked up): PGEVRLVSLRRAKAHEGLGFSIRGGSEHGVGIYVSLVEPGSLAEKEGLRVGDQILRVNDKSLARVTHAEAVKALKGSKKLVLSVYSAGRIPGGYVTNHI

[9] = target: NHERF4_4, Q86UT5
NHERF4_4, Q86UT5, sequence (Q86UT5 464-550): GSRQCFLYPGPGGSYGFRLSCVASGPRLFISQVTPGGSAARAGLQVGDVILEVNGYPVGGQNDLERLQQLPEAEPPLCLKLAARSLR

[10] = target: T4, RADIL, Q96JH8
T4 sequence (Q96JH8 971-1071, limits assumed, looked up): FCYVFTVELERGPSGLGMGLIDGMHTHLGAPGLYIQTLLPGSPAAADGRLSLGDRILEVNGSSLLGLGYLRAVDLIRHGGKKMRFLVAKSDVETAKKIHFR

[11] = target: MAGI2_2, Q86UL8
MAGI2_2, Q86UL8, sequence (Q86UL8 410-522): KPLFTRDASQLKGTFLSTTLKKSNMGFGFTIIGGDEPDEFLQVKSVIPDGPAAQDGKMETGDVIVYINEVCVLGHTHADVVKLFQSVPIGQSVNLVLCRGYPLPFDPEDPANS

[12] = target: T5, SIPA1L2, Q9P2F8
T5 sequence (Q9P2F8 945-1036, limits assumed, looked up): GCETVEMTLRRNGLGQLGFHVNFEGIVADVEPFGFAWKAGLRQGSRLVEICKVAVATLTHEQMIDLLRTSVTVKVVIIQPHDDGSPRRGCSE

[13] = target: FRMPD2_2, Q68DX3
FRMPD2_2, Q68DX3, sequence (Q68DX3 944-1038): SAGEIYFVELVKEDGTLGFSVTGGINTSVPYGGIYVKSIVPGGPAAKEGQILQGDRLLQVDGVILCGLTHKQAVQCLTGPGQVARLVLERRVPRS

[14] = target: LNX1_2, Q8TBB1
LNX1_2, Q8TBB1, sequence (Q8TBB1 371-470): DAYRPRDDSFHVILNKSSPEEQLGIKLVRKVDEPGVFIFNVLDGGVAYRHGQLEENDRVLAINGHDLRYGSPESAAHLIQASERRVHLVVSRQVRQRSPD

[15] = target: LIMK2, P53671
LIMK2, P53671, sequence (P53671 143-248): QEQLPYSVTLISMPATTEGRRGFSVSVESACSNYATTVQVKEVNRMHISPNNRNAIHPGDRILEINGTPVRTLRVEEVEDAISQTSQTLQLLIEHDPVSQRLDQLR

[16] = target: Inadl_6, Q8NI35
Inadl_6, Q8NI35, sequence (Q8NI35 1058-1167): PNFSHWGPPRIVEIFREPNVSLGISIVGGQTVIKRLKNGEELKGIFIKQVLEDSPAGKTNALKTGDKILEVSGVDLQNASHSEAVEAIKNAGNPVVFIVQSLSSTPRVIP

[17] = target: T6, NHERF3_3, Q5T2W1
T6 sequence (Q5T2W1 238-333, limits assumed, looked up): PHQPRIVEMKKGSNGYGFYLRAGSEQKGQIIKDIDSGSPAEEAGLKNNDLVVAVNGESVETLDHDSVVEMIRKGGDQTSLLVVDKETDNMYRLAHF

[18] = target: GRID2IP_1, A4D2P6
GRID2IP_1, A4D2P6, sequence (A4D2P6 1-87): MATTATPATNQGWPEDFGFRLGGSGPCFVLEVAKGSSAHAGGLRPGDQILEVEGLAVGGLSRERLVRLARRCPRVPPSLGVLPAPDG

[19] = target: T7, LNX2_3, Q8N448
T7 sequence (Q8N448 463-564, limits assumed, looked up): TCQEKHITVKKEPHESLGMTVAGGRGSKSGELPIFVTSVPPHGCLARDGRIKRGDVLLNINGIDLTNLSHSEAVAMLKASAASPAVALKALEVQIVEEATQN

[20] = target: T8, APBA2_2, Q99767
T8 sequence (Q99767 654-744, limits assumed, looked up): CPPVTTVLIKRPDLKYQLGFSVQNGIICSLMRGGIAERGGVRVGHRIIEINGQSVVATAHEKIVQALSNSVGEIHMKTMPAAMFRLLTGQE

[21] = target: T9, GRIP1_7, Q9Y3R0
T9 sequence (Q9Y3R0 999-1096, limits assumed, looked up): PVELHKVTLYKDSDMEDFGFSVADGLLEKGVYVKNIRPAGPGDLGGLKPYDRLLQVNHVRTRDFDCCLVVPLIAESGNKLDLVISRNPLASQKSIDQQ

[22] = target: GRIP2_4, Q9C0E4
GRIP2_4, Q9C0E4, sequence (Q9C0E4 446-548): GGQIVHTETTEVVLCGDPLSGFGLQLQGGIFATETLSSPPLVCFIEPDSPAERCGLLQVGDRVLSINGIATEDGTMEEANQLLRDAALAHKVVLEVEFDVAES

[23] = target: IL16_1, Q14005
IL16_1, Q14005, sequence (Q14005 210-306): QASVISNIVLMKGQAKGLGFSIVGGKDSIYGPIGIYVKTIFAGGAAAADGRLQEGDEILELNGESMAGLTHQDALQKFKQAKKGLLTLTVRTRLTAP

[24] = target: T10, CARD11, Q9BXL7
T10 sequence (Q9BXL7 662-765, limits assumed, looked up): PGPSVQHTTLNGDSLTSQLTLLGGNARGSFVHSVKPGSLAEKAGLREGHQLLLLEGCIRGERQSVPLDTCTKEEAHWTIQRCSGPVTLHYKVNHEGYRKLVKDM

[25] = target: T11, GRIP1_3, Q9Y3R0
T11 sequence (Q9Y3R0 247-346, limits assumed, looked up): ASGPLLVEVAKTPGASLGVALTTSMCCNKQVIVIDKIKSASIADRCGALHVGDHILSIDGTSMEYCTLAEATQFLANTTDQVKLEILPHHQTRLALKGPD

[26] = target: Inadl_9, Q8NI35
Inadl_9, Q8NI35, sequence (Q8NI35 1530-1615): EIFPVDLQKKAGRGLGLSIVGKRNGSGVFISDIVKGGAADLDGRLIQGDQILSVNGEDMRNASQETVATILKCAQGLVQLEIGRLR

[27] = target: ARHGEF12, Q9NZN5-2
ARHGEF12, Q9NZN5-2, sequence (Q9NZN5 other isoform, or with tags, fused parts or gaps): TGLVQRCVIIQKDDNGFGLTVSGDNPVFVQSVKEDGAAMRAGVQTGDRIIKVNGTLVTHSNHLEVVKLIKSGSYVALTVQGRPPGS

[28] = plain residues with an end cap or a label only (N-terminal biotin on a linker: ahx)
[29] = plain residues with an end cap or a label only (N-terminal biotin on a linker: ttds)

With GYDWGPATDL [TJP3, O95049] the pKd [1, 28] was “below the threshold”, the pKd [2, 28] was “below the threshold” and the pKd [3, 28] was “below the threshold”. The pKd [4, 28] was 4.41, the pKd [5, 28] was 4.47 and the pKd [6, 28] was “below the threshold”. For the same binder, the pKd [7, 28] was “below the threshold”, the pKd [8, 28] was 4.11 and the pKd [9, 28] was “below the threshold”. The pKd [10, 28] was “below the threshold”, the pKd [11, 28] was “below the threshold” and the pKd [12, 28] was “below the threshold”. The pKd [13, 28] was 3.54, the pKd [14, 28] was “below the threshold” and the pKd [15, 28] was “below the threshold”. The pKd [16, 28] was 4.8, the pKd [17, 28] was “below the threshold” and the pKd [18, 28] was “below the threshold”. For the same binder, the pKd [19, 28] was “below the threshold”, the pKd [20, 28] was “below the threshold” and the pKd [21, 28] was “below the threshold”. The pKd [22, 28] was “below the threshold”, the pKd [23, 28] was “below the threshold” and the pKd [24, 28] was “below the threshold”. The pKd [25, 28] was “below the threshold”, the pKd [26, 28] was 3.6 and the pKd [27, 28] was 4.66.

For SSLQSLETSV [ATP2B4, P23634], the pKd [1, 29] was 3.58, the pKd [2, 29] was “below the threshold” and the pKd [3, 29] was 3.71. For the same binder, the pKd [4, 29] was 3.66, the pKd [5, 29] was “below the threshold” and the pKd [6, 29] was 3.53. The pKd [7, 29] was 4.6, the pKd [8, 29] was 4.17 and the pKd [9, 29] was “below the threshold”. The pKd [10, 29] was 3.69, the pKd [11, 29] was 4.49 and the pKd [12, 29] was “below the threshold”. The pKd [13, 29] was 4.64, the pKd [14, 29] was 3.7 and the pKd [15, 29] was “below the threshold”. For the same binder, the pKd [16, 29] was “below the threshold”, the pKd [17, 29] was “below the threshold” and the pKd [18, 29] was “below the threshold”. The pKd [19, 29] was “below the threshold”, the pKd [20, 29] was 3.59 and the pKd [21, 29] was “below the threshold”. The pKd [22, 29] was “below the threshold”, the pKd [23, 29] was 4.7 and the pKd [24, 29] was “below the threshold”. The pKd [25, 29] was “below the threshold”, the pKd [26, 29] was “below the threshold” and the pKd [27, 29] was 4.4.

For RLPKIKETTV [FRMPD4, Q14CM0], the pKd [1, 29] was “below the threshold”, the pKd [2, 29] was “below the threshold” and the pKd [3, 29] was “below the threshold”. For the same binder, the pKd [4, 29] was “below the threshold”, the pKd [5, 29] was 3.74 and the pKd [6, 29] was “below the threshold”. For the same binder, the pKd [7, 29] was 3.9, the pKd [8, 29] was 3.96 and the pKd [9, 29] was “below the threshold”. The pKd [10, 29] was “below the threshold”, the pKd [11, 29] was 4.73 and the pKd [12, 29] was “below the threshold”. The pKd [13, 29] was “below the threshold”, the pKd [14, 29] was 3.42 and the pKd [15, 29] was “below the threshold”. For the same binder, the pKd [16, 29] was “below the threshold”, the pKd [17, 29] was “below the threshold” and the pKd [18, 29] was “below the threshold”. The pKd [19, 29] was “below the threshold”, the pKd [20, 29] was “below the threshold” and the pKd [21, 29] was “below the threshold”. The pKd [22, 29] was “below the threshold”, the pKd [23, 29] was 4.07 and the pKd [24, 29] was “below the threshold”. The pKd [25, 29] was “below the threshold”, the pKd [26, 29] was 3.48 and the pKd [27, 29] was 4.23.

In the case of RLQRRRETQV [HPV18-E6, P06463], the pKd [1, 29] is reported as “below the threshold”, the pKd [2, 29] is reported as “below the threshold” and the pKd [3, 29] is reported as “below the threshold”. For the same binder, the pKd [4, 29] was “below the threshold”, the pKd [5, 29] was “below the threshold” and the pKd [6, 29] was “below the threshold”. For the same binder, the pKd [7, 29] was 3.78, the pKd [8, 29] was “below the threshold” and the pKd [9, 29] was “below the threshold”. The pKd [10, 29] was 3.28, the pKd [11, 29] was 5.16 and the pKd [12, 29] was “below the threshold”. The pKd [13, 29] was “below the threshold”, the pKd [14, 29] was “below the threshold” and the pKd [15, 29] was “below the threshold”. For the same binder, the pKd [16, 29] was “below the threshold”, the pKd [17, 29] was “below the threshold” and the pKd [18, 29] was “below the threshold”. The pKd [19, 29] was “below the threshold”, the pKd [20, 29] was “below the threshold” and the pKd [21, 29] was “below the threshold”. For the same binder, the pKd [22, 29] was “below the threshold”, the pKd [23, 29] was “below the threshold” and the pKd [24, 29] was “below the threshold”. The pKd [25, 29] was “below the threshold”, the pKd [26, 29] was “below the threshold” and the pKd [27, 29] was 3.91.

In the case of RHTTSTETAV [HPV30-E6, P36809], the pKd [1, 29] is reported as 3.78, the pKd [2, 29] is reported as “below the threshold” and the pKd [3, 29] is reported as “below the threshold”. For the same binder, the pKd [4, 29] was “below the threshold”, the pKd [5, 29] was “below the threshold” and the pKd [6, 29] was “below the threshold”. The pKd [7, 29] was 4.31, the pKd [8, 29] was 4.27 and the pKd [9, 29] was “below the threshold”. The pKd [10, 29] was “below the threshold”, the pKd [11, 29] was 5.04 and the pKd [12, 29] was “below the threshold”. The pKd [13, 29] was 4.23, the pKd [14, 29] was 3.67 and the pKd [15, 29] was 3.85. For the same binder, the pKd [16, 29] was “below the threshold”, the pKd [17, 29] was “below the threshold” and the pKd [18, 29] was “below the threshold”. For the same binder, the pKd [19, 29] was “below the threshold”, the pKd [20, 29] was “below the threshold” and the pKd [21, 29] was “below the threshold”. The pKd [22, 29] was 3.66, the pKd [23, 29] was 4.08 and the pKd [24, 29] was “below the threshold”. The pKd [25, 29] was “below the threshold”, the pKd [26, 29] was “below the threshold” and the pKd [27, 29] was 4.2.
